The results in this text go back to EP4772193A1 (Teijin Pharma Limited, dated 2026).

Assay [1] concerns the target T1, recombinant human soluble gpNMB (recombinant human gpNMB-FLAG-His) (human, UniProt Q14956 23-498).
T1 sequence: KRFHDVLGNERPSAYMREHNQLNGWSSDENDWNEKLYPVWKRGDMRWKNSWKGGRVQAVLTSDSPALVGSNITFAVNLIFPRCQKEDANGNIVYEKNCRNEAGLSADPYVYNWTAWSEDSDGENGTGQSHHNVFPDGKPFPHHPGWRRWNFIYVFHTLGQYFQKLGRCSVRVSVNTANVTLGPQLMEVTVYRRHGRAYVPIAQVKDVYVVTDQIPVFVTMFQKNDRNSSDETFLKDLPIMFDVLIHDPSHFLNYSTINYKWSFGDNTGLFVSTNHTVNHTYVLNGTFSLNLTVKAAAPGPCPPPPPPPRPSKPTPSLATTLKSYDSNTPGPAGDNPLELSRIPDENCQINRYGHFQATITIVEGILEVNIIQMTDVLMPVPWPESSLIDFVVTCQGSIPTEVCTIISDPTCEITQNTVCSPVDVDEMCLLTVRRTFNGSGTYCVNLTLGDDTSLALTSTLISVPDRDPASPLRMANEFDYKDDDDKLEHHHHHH
The experiment in a line: antigen ELISA, vs hGPN06-1_H1L1. (In general: An ELISA detects its analyte on a solid surface through an enzyme-linked reagent.)

For assay [2], the target named is T1, recombinant human soluble gpNMB …. In words: antigen ELISA.

B1: hGPN06-1_H1L1 VH G26A (antibody, V domains shown)
VH: QVQLVQSGAEVKKPGASVKVSCKASAYTFTDNWMGWVKQRPGQGLEWIGAIDPSDSFTNYNQNFKGRVTMTVDTSISTAYMELSRLRSDDSAVYFCTRSGYYGSPKLGGDYWGQGTLVTVSS
VL: EIVLTQSPSSLSASVGDRVTITCSASSSISYMHWYQQKSGTAPKLLIYSTSNLASGVPSRFSGSGSGTDFTFTISSLQPEDAATYYCHQWNSYPCTFGGGTKLEIK
Take B1: the Relative binding activity in assay [1] came out at 1.08. Further, in assay [2], the EC50 was found to be 1.21 nM.

B2: hGPN06-1_H1L1 VH G66A (antibody, V domains shown)
VH: QVQLVQSGAEVKKPGASVKVSCKASGYTFTDNWMGWVKQRPGQGLEWIGAIDPSDSFTNYNQNFKARVTMTVDTSISTAYMELSRLRSDDSAVYFCTRSGYYGSPKLGGDYWGQGTLVTVSS
VL: EIVLTQSPSSLSASVGDRVTITCSASSSISYMHWYQQKSGTAPKLLIYSTSNLASGVPSRFSGSGSGTDFTFTISSLQPEDAATYYCHQWNSYPCTFGGGTKLEIK
For the molecule B2, the Relative binding activity in assay [1] is 1.09. Moreover, the EC50 in assay [2] was determined as 0.373 nM.

B3: hGPN06-1_H1L1 VH P53A (antibody, V domains shown)
VH: QVQLVQSGAEVKKPGASVKVSCKASGYTFTDNWMGWVKQRPGQGLEWIGAIDASDSFTNYNQNFKGRVTMTVDTSISTAYMELSRLRSDDSAVYFCTRSGYYGSPKLGGDYWGQGTLVTVSS
VL: EIVLTQSPSSLSASVGDRVTITCSASSSISYMHWYQQKSGTAPKLLIYSTSNLASGVPSRFSGSGSGTDFTFTISSLQPEDAATYYCHQWNSYPCTFGGGTKLEIK
For the molecule B3, the Relative binding activity in assay [1] was 0.85. In addition, the EC50 in assay [2] is 0.801 nM.

B4: hGPN06-1_H1L1 VH K65A (antibody, V domains shown)
VH: QVQLVQSGAEVKKPGASVKVSCKASGYTFTDNWMGWVKQRPGQGLEWIGAIDPSDSFTNYNQNFAGRVTMTVDTSISTAYMELSRLRSDDSAVYFCTRSGYYGSPKLGGDYWGQGTLVTVSS
VL: EIVLTQSPSSLSASVGDRVTITCSASSSISYMHWYQQKSGTAPKLLIYSTSNLASGVPSRFSGSGSGTDFTFTISSLQPEDAATYYCHQWNSYPCTFGGGTKLEIK
For the molecule B4, the Relative binding activity in assay [1] was 1.1. In assay [2], the EC50 stood at 0.406 nM.

B5: hGPN06-1_H1L1 VH T28A (antibody, V domains shown)
VH: QVQLVQSGAEVKKPGASVKVSCKASGYAFTDNWMGWVKQRPGQGLEWIGAIDPSDSFTNYNQNFKGRVTMTVDTSISTAYMELSRLRSDDSAVYFCTRSGYYGSPKLGGDYWGQGTLVTVSS
VL: EIVLTQSPSSLSASVGDRVTITCSASSSISYMHWYQQKSGTAPKLLIYSTSNLASGVPSRFSGSGSGTDFTFTISSLQPEDAATYYCHQWNSYPCTFGGGTKLEIK
With B5, the Relative binding activity in assay [1] was found to be 1.49. The EC50 in assay [2] worked out at 1.98 nM.

B6: hGPN06-1_H1L1 VH G35A (antibody, V domains shown)
VH: QVQLVQSGAEVKKPGASVKVSCKASGYTFTDNWMAWVKQRPGQGLEWIGAIDPSDSFTNYNQNFKGRVTMTVDTSISTAYMELSRLRSDDSAVYFCTRSGYYGSPKLGGDYWGQGTLVTVSS
VL: EIVLTQSPSSLSASVGDRVTITCSASSSISYMHWYQQKSGTAPKLLIYSTSNLASGVPSRFSGSGSGTDFTFTISSLQPEDAATYYCHQWNSYPCTFGGGTKLEIK
On to B6, for which, in assay [1], the Relative binding activity is 1.4. Also, the EC50 in assay [2] is 3.55 nM.

B7: hGPN06-1_H1L1 VH S54A (antibody, V domains shown)
VH: QVQLVQSGAEVKKPGASVKVSCKASGYTFTDNWMGWVKQRPGQGLEWIGAIDPADSFTNYNQNFKGRVTMTVDTSISTAYMELSRLRSDDSAVYFCTRSGYYGSPKLGGDYWGQGTLVTVSS
VL: EIVLTQSPSSLSASVGDRVTITCSASSSISYMHWYQQKSGTAPKLLIYSTSNLASGVPSRFSGSGSGTDFTFTISSLQPEDAATYYCHQWNSYPCTFGGGTKLEIK
In the case of B7, the Relative binding activity in assay [1] is 0.92. Further, the EC50 in assay [2] was 0.652 nM.

B8: hGPN06-1_H1L1 VH T30A (antibody, V domains shown)
VH: QVQLVQSGAEVKKPGASVKVSCKASGYTFADNWMGWVKQRPGQGLEWIGAIDPSDSFTNYNQNFKGRVTMTVDTSISTAYMELSRLRSDDSAVYFCTRSGYYGSPKLGGDYWGQGTLVTVSS
VL: EIVLTQSPSSLSASVGDRVTITCSASSSISYMHWYQQKSGTAPKLLIYSTSNLASGVPSRFSGSGSGTDFTFTISSLQPEDAATYYCHQWNSYPCTFGGGTKLEIK
Consider B8, for which the Relative binding activity in assay [1] came to 1.23. Moreover, in assay [2], the EC50 is 2.02 nM.

B9: hGPN06-1_H1L1 VH N59A (antibody, V domains shown)
VH: QVQLVQSGAEVKKPGASVKVSCKASGYTFTDNWMGWVKQRPGQGLEWIGAIDPSDSFTAYNQNFKGRVTMTVDTSISTAYMELSRLRSDDSAVYFCTRSGYYGSPKLGGDYWGQGTLVTVSS
VL: EIVLTQSPSSLSASVGDRVTITCSASSSISYMHWYQQKSGTAPKLLIYSTSNLASGVPSRFSGSGSGTDFTFTISSLQPEDAATYYCHQWNSYPCTFGGGTKLEIK
As for B9, the Relative binding activity in assay [1] is 0.04. For the same molecule, in assay [2], the half-maximal effective concentration (EC50) was found to be 29.4 nM.

B10: hGPN06-1_H1L1 VH W33A (antibody, V domains shown)
VH: QVQLVQSGAEVKKPGASVKVSCKASGYTFTDNAMGWVKQRPGQGLEWIGAIDPSDSFTNYNQNFKGRVTMTVDTSISTAYMELSRLRSDDSAVYFCTRSGYYGSPKLGGDYWGQGTLVTVSS
VL: EIVLTQSPSSLSASVGDRVTITCSASSSISYMHWYQQKSGTAPKLLIYSTSNLASGVPSRFSGSGSGTDFTFTISSLQPEDAATYYCHQWNSYPCTFGGGTKLEIK
B10: the Relative binding activity in assay [1] is 0.06. The EC50 in assay [2] was found to be 28.1 nM.

B11: hGPN06-1_H1L1 VH S56A (antibody, V domains shown)
VH: QVQLVQSGAEVKKPGASVKVSCKASGYTFTDNWMGWVKQRPGQGLEWIGAIDPSDAFTNYNQNFKGRVTMTVDTSISTAYMELSRLRSDDSAVYFCTRSGYYGSPKLGGDYWGQGTLVTVSS
VL: EIVLTQSPSSLSASVGDRVTITCSASSSISYMHWYQQKSGTAPKLLIYSTSNLASGVPSRFSGSGSGTDFTFTISSLQPEDAATYYCHQWNSYPCTFGGGTKLEIK
Regarding B11, the Relative binding activity in assay [1] turned out to be 1.14. Further, in assay [2], the EC50 was found to be 0.429 nM.

B12: hGPN06-1_H1L1 VH N63A (antibody, V domains shown)
VH: QVQLVQSGAEVKKPGASVKVSCKASGYTFTDNWMGWVKQRPGQGLEWIGAIDPSDSFTNYNQAFKGRVTMTVDTSISTAYMELSRLRSDDSAVYFCTRSGYYGSPKLGGDYWGQGTLVTVSS
VL: EIVLTQSPSSLSASVGDRVTITCSASSSISYMHWYQQKSGTAPKLLIYSTSNLASGVPSRFSGSGSGTDFTFTISSLQPEDAATYYCHQWNSYPCTFGGGTKLEIK
As to B12, the Relative binding activity in assay [1] turned out to be 1.07. For the same molecule, the EC50 in assay [2] came out at 0.439 nM.

B13: hGPN06-1_H1L1 VH Q62A (antibody, V domains shown)
VH: QVQLVQSGAEVKKPGASVKVSCKASGYTFTDNWMGWVKQRPGQGLEWIGAIDPSDSFTNYNANFKGRVTMTVDTSISTAYMELSRLRSDDSAVYFCTRSGYYGSPKLGGDYWGQGTLVTVSS
VL: EIVLTQSPSSLSASVGDRVTITCSASSSISYMHWYQQKSGTAPKLLIYSTSNLASGVPSRFSGSGSGTDFTFTISSLQPEDAATYYCHQWNSYPCTFGGGTKLEIK
For the molecule B13, in assay [1], the Relative binding activity worked out at 1.14. Besides, in assay [2], the EC50 came to 0.406 nM.

B14: hGPN06-1_H1L1 VH M34A (antibody, V domains shown)
VH: QVQLVQSGAEVKKPGASVKVSCKASGYTFTDNWAGWVKQRPGQGLEWIGAIDPSDSFTNYNQNFKGRVTMTVDTSISTAYMELSRLRSDDSAVYFCTRSGYYGSPKLGGDYWGQGTLVTVSS
VL: EIVLTQSPSSLSASVGDRVTITCSASSSISYMHWYQQKSGTAPKLLIYSTSNLASGVPSRFSGSGSGTDFTFTISSLQPEDAATYYCHQWNSYPCTFGGGTKLEIK
As to B14, in assay [1], the Relative binding activity is 1.06. Also, the concentration giving a half-maximal response (EC50) in assay [2] was found to be 3.55 nM.

B15: hGPN06-1_H1L1 VH I51A (antibody, V domains shown)
VH: QVQLVQSGAEVKKPGASVKVSCKASGYTFTDNWMGWVKQRPGQGLEWIGAADPSDSFTNYNQNFKGRVTMTVDTSISTAYMELSRLRSDDSAVYFCTRSGYYGSPKLGGDYWGQGTLVTVSS
VL: EIVLTQSPSSLSASVGDRVTITCSASSSISYMHWYQQKSGTAPKLLIYSTSNLASGVPSRFSGSGSGTDFTFTISSLQPEDAATYYCHQWNSYPCTFGGGTKLEIK
On to B15, for which, in assay [1], the Relative binding activity turned out to be 0.89. In addition, the EC50 in assay [2] is 0.993 nM.

B16: hGPN06-1_H1L1 VH N61A (antibody, V domains shown)
VH: QVQLVQSGAEVKKPGASVKVSCKASGYTFTDNWMGWVKQRPGQGLEWIGAIDPSDSFTNYAQNFKGRVTMTVDTSISTAYMELSRLRSDDSAVYFCTRSGYYGSPKLGGDYWGQGTLVTVSS
VL: EIVLTQSPSSLSASVGDRVTITCSASSSISYMHWYQQKSGTAPKLLIYSTSNLASGVPSRFSGSGSGTDFTFTISSLQPEDAATYYCHQWNSYPCTFGGGTKLEIK
In the case of B16, the Relative binding activity in assay [1] stood at 0.04. The concentration giving a half-maximal response (EC50) in assay [2] turned out to be 26.1 nM.

B17: hGPN06-1_H1L1 VH N32A (antibody, V domains shown)
VH: QVQLVQSGAEVKKPGASVKVSCKASGYTFTDAWMGWVKQRPGQGLEWIGAIDPSDSFTNYNQNFKGRVTMTVDTSISTAYMELSRLRSDDSAVYFCTRSGYYGSPKLGGDYWGQGTLVTVSS
VL: EIVLTQSPSSLSASVGDRVTITCSASSSISYMHWYQQKSGTAPKLLIYSTSNLASGVPSRFSGSGSGTDFTFTISSLQPEDAATYYCHQWNSYPCTFGGGTKLEIK
Take B17: in assay [1], the Relative binding activity is 0.35. In assay [2], the EC50 came out at 7.83 nM.

B18: hGPN06-1_H1L1 VH T58A (antibody, V domains shown)
VH: QVQLVQSGAEVKKPGASVKVSCKASGYTFTDNWMGWVKQRPGQGLEWIGAIDPSDSFANYNQNFKGRVTMTVDTSISTAYMELSRLRSDDSAVYFCTRSGYYGSPKLGGDYWGQGTLVTVSS
VL: EIVLTQSPSSLSASVGDRVTITCSASSSISYMHWYQQKSGTAPKLLIYSTSNLASGVPSRFSGSGSGTDFTFTISSLQPEDAATYYCHQWNSYPCTFGGGTKLEIK
Take B18: the Relative binding activity in assay [1] was determined as 0.04. Moreover, the EC50 in assay [2] turned out to be 28 nM.

Usually EC50 stands for the concentration needed to bring the measured effect to its halfway point.
